B1: FBF1 (parent)
chain: QLQCSPAELQAELLHSQARLAELE

Variants of: B1
Assay: protein stability index of a GFP-peptide fusion (GPS, HEK-293T) (PSI 1-6); higher = more stable
Details: c terminus: a fixed tail appended
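Also: lentivirally expressed fusions sorted by FACS into six bins by GFP to DsRed ratio, PSI derived from sequencing read proportions per bin multiplied by bin number.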

Variant	protein stability index
QLQCSPAELQAELLHFQARLAELE [S16F]	3.78
QLQCSPAELQAELLHTQARLAELE [S16T]	2.95
QLQCSPAELQAELLHGQARLAELE [S16G]	4.86
QLQCSPAELQAELLHLQARLAELE [S16L]	3.91
QLQCSPAELQAELLHNQARLAELE [S16N]	4.33
QLQCSPAELQAELLHWQARLAELE [S16W]	3.35
QLQCSPAELQAELLHKQARLAELE [S16K]	3.9
QLQCSPAELQAELLHMQARLAELE [S16M]	3.33
QLQCSPAELQAELLHEQARLAELE [S16E]	4.81
QLQCSPAELQAELLHRQARLAELE [S16R]	4.02
QLQCSPAELQAELLHDQARLAELE [S16D]	5.03
QLQCSPAELQAELLHIQARLAELE [S16I]	2.81
QLQCSPAELQAELLHAQARLAELE [S16A]	2.88
QLQCSPAELQAELLHYQARLAELE [S16Y]	3.49
QLQCSPAELQAELLHCQARLAELE [S16C]	4.23
QLQCSPAELQAELLHPQARLAELE [S16P]	4.17
QLQCSPAELQAELLHQQARLAELE [S16Q]	4.06
QLQCSPAELQAELLHVQARLAELE [S16V]	4.15
QLQCSPAELQAELLHHQARLAELE [S16H]	4.46
QLQCSPAELQAELLHSNARLAELE [Q17N]	4.25
QLQCSPAELQAELLHSSARLAELE [Q17S]	3.98
QLQCSPAELQAELLHSKARLAELE [Q17K]	4.11
QLQCSPAELQAELLHSEARLAELE [Q17E]	3.77
QLQCSPAELQAELLHSIARLAELE [Q17I]	3.07

Variant	protein stability index
QLQCSPAELQAELLHSLARLAELE [Q17L]	2.92
QLQCSPAELQAELLHSDARLAELE [Q17D]	4.55
QLQCSPAELQAELLHSTARLAELE [Q17T]	3.97
QLQCSPAELQAELLHSVARLAELE [Q17V]	3.44
QLQCSPAELQAELLHSFARLAELE [Q17F]	3.26
QLQCSPAELQAELLHSPARLAELE [Q17P]	4.52
QLQCSPAELQAELLHSRARLAELE [Q17R]	3.68
QLQCSPAELQAELLHSGARLAELE [Q17G]	3.74
QLQCSPAELQAELLHSWARLAELE [Q17W]	3.16
QLQCSPAELQAELLHSMARLAELE [Q17M]	3.65
QLQCSPAELQAELLHSYARLAELE [Q17Y]	3.52
QLQCSPAELQAELLHSHARLAELE [Q17H]	4.31
QLQCSPAELQAELLHSAARLAELE [Q17A]	3.4
QLQCSPAELQAELLHSCARLAELE [Q17C]	3.62
QLQCSPAELQAELLGSQARLAELE [H15G]	4.04
QLQCSPAELQAELLSSQARLAELE [H15S]	2.52
QLQCSPAELQAELLRSQARLAELE [H15R]	2.73
QLQCSPAELQAELLISQARLAELE [H15I]	1.87
QLQCSPAELQAELLCSQARLAELE [H15C]	2.88
QLQCSPAELQAELLMSQARLAELE [H15M]	2.22
QLQCSPAELQAELLVSQARLAELE [H15V]	2.85
QLQCSPAELQAELLNSQARLAELE [H15N]	2.81
QLQCSPAELQAELLESQARLAELE [H15E]	3.81
QLQCSPAELQAELLFSQARLAELE [H15F]	1.84

Variant	protein stability index
QLQCSPAELQAELLASQARLAELE [H15A]	3.78
QLQCSPAELQAELLWSQARLAELE [H15W]	2.65
QLQCSPAELQAELLYSQARLAELE [H15Y]	1.92
QLQCSPAELQAELLPSQARLAELE [H15P]	4.91
QLQCSPAELQAELLQSQARLAELE [H15Q]	3.71
QLQCSPAELQAELLDSQARLAELE [H15D]	3.28
QLQCSPAELQAELLTSQARLAELE [H15T]	3.56
QLQCSPAELQAELLLSQARLAELE [H15L]	2.27
QLQCSPAELQAELLKSQARLAELE [H15K]	3.49
QLQCSPAEDQAELLHSQARLAELE [L9D]	5.05
QLQCSPAEPQAELLHSQARLAELE [L9P]	4.79
QLQCSPAESQAELLHSQARLAELE [L9S]	5.05
QLQCSPAEIQAELLHSQARLAELE [L9I]	4.14
QLQCSPAETQAELLHSQARLAELE [L9T]	4.45
QLQCSPAEHQAELLHSQARLAELE [L9H]	4.18
QLQCSPAERQAELLHSQARLAELE [L9R]	4.51
QLQCSPAEVQAELLHSQARLAELE [L9V]	4.4
QLQCSPAECQAELLHSQARLAELE [L9C]	3.85
QLQCSPAEGQAELLHSQARLAELE [L9G]	4.96
QLQCSPAEAQAELLHSQARLAELE [L9A]	4.79
QLQCSPAEQQAELLHSQARLAELE [L9Q]	4.62
QLQCSPAEWQAELLHSQARLAELE [L9W]	4.52
QLQCSPAEMQAELLHSQARLAELE [L9M]	4.3
QLQCSPAEFQAELLHSQARLAELE [L9F]	4.1

Variant	protein stability index
QLQCSPAEYQAELLHSQARLAELE [L9Y]	4.64
QLQCSPAENQAELLHSQARLAELE [L9N]	4.92
QLQCSPAEEQAELLHSQARLAELE [L9E]	5.3
QLQCSPAEKQAELLHSQARLAELE [L9K]	4.57
QLQCSPAELQQELLHSQARLAELE [A11Q]	3.28
QLQCSPAELQDELLHSQARLAELE [A11D]	2.94
QLQCSPAELQNELLHSQARLAELE [A11N]	3.1
QLQCSPAELQSELLHSQARLAELE [A11S]	2.77
QLQCSPAELQYELLHSQARLAELE [A11Y]	2.3
QLQCSPAELQLELLHSQARLAELE [A11L]	1.71
QLQCSPAELQGELLHSQARLAELE [A11G]	4.24
QLQCSPAELQVELLHSQARLAELE [A11V]	2.87
QLQCSPAELQMELLHSQARLAELE [A11M]	2.01
QLQCSPAELQCELLHSQARLAELE [A11C]	3.89
QLQCSPAELQIELLHSQARLAELE [A11I]	2.24
QLQCSPAELQWELLHSQARLAELE [A11W]	2.59
QLQCSPAELQFELLHSQARLAELE [A11F]	2.41
QLQCSPAELQRELLHSQARLAELE [A11R]	2.62
QLQCSPAELQPELLHSQARLAELE [A11P]	4.43
QLQCSPAELQKELLHSQARLAELE [A11K]	3.04
QLQCSPAELQEELLHSQARLAELE [A11E]	4.26
QLQCSPAELQHELLHSQARLAELE [A11H]	3.38
QLQCSPAELQTELLHSQARLAELE [A11T]	3.37
QLQCSPAELQAELRHSQARLAELE [L14R]	3.33

Variant	protein stability index
QLQCSPAELQAELHHSQARLAELE [L14H]	3.94
QLQCSPAELQAELNHSQARLAELE [L14N]	2.85
QLQCSPAELQAELTHSQARLAELE [L14T]	3.61
QLQCSPAELQAELMHSQARLAELE [L14M]	2.93
QLQCSPAELQAELSHSQARLAELE [L14S]	3.67
QLQCSPAELQAELCHSQARLAELE [L14C]	3.3
QLQCSPAELQAELPHSQARLAELE [L14P]	4.8
QLQCSPAELQAELWHSQARLAELE [L14W]	2.93
QLQCSPAELQAELKHSQARLAELE [L14K]	3.72
QLQCSPAELQAELEHSQARLAELE [L14E]	4.39
QLQCSPAELQAELGHSQARLAELE [L14G]	4.5
QLQCSPAELQAELAHSQARLAELE [L14A]	2.89
QLQCSPAELQAELIHSQARLAELE [L14I]	3.83
QLQCSPAELQAELVHSQARLAELE [L14V]	4.08
QLQCSPAELQAELQHSQARLAELE [L14Q]	3.59
QLQCSPAELQAELDHSQARLAELE [L14D]	4.88
QLQCSPAELQAELFHSQARLAELE [L14F]	3.27
QLQCSPAELQAELYHSQARLAELE [L14Y]	3.21
QLQCSPAYLQAELLHSQARLAELE [E8Y]	2.25
QLQCSPAWLQAELLHSQARLAELE [E8W]	1.79
QLQCSPAELQAELLHSQRRLAELE [A18R]	3.24
QLQCSPAELQAELLHSQQRLAELE [A18Q]	3.66
QLQCSPAELQAELLHSQERLAELE [A18E]	3.95
QLQCSPAELQAELLHSQFRLAELE [A18F]	2.82

Variant	protein stability index
QLQCSPAELQAELLHSQDRLAELE [A18D]	4.03
QLQCSPAELQAELLHSQNRLAELE [A18N]	3.12
QLQCSPAELQAELLHSQSRLAELE [A18S]	3.69
QLQCSPAELQAELLHSQKRLAELE [A18K]	2.77
QLQCSPAELQAELLHSQIRLAELE [A18I]	3.13
QLQCSPAELQAELLHSQGRLAELE [A18G]	4.23
QLQCSPAELQAELLHSQCRLAELE [A18C]	3.27
QLQCSPAELQAELLHSQHRLAELE [A18H]	2.85
QLQCSPAELQAELLHSQLRLAELE [A18L]	2.68
QLQCSPAELQAELLHSQMRLAELE [A18M]	2.77
QLQCSPAELQAELLHSQPRLAELE [A18P]	3.96
QLQCSPAELEAELLHSQARLAELE [Q10E]	3.95
QLQCSPAELKAELLHSQARLAELE [Q10K]	3.74
QLQCSPAELPAELLHSQARLAELE [Q10P]	4.69
QLQCSPAELNAELLHSQARLAELE [Q10N]	3.54
QLQCSPAELDAELLHSQARLAELE [Q10D]	5.13
QLQCSPAELCAELLHSQARLAELE [Q10C]	2.45
QLQCSPAELRAELLHSQARLAELE [Q10R]	2.56
QLQCSPAELVAELLHSQARLAELE [Q10V]	2.56
QLQCSPAELWAELLHSQARLAELE [Q10W]	2.21
QLQCSPAELIAELLHSQARLAELE [Q10I]	2.04
QLQCSPAELLAELLHSQARLAELE [Q10L]	2.17
QLQCSPAELHAELLHSQARLAELE [Q10H]	3.1
QLQCSPAELSAELLHSQARLAELE [Q10S]	3.7

Variant	protein stability index
QLQCSPAELMAELLHSQARLAELE [Q10M]	2.29
QLQCSPAELYAELLHSQARLAELE [Q10Y]	1.89
QLQCSPAELGAELLHSQARLAELE [Q10G]	3.85
QLQCSPAELAAELLHSQARLAELE [Q10A]	2.93
QLQCSPAELFAELLHSQARLAELE [Q10F]	1.79
QLQCSPAELTAELLHSQARLAELE [Q10T]	3.91
QLQCSPAELQAEELHSQARLAELE [L13E]	4.25
QLQCSPAELQAEALHSQARLAELE [L13A]	4.28
QLQCSPAELQAEGLHSQARLAELE [L13G]	4.59
QLQCSPAELQAEVLHSQARLAELE [L13V]	4.2
QLQCSPAELQAEPLHSQARLAELE [L13P]	4.73
QLQCSPAELQAEQLHSQARLAELE [L13Q]	5.08
QLQCSPAELQAENLHSQARLAELE [L13N]	4.96
QLQCSPAELQAEMLHSQARLAELE [L13M]	3.34
QLQCSPAELQAEDLHSQARLAELE [L13D]	5.39
QLQCSPAELQAEKLHSQARLAELE [L13K]	4.25
QLQCSPAELQAEWLHSQARLAELE [L13W]	4.13
QLQCSPAELQAEILHSQARLAELE [L13I]	4.62
QLQCSPAELQAERLHSQARLAELE [L13R]	4.31
QLQCSPAELQAECLHSQARLAELE [L13C]	4.32
QLQCSPAELQAEYLHSQARLAELE [L13Y]	4.52
QLQCSPAELQAESLHSQARLAELE [L13S]	4.74
QLQCSPAELQAEHLHSQARLAELE [L13H]	4.85
QLQCSPAELQAEFLHSQARLAELE [L13F]	4.25

Variant	protein stability index
QLQCSPAELQAETLHSQARLAELE [L13T]	4.7
QLQCSPAELQAFLLHSQARLAELE [E12F]	3.56
QLQCSPAELQANLLHSQARLAELE [E12N]	3.18
QLQCSPAELQALLLHSQARLAELE [E12L]	2.75
QLQCSPAELQAYLLHSQARLAELE [E12Y]	3.22
QLQCSPAELQAKLLHSQARLAELE [E12K]	3.38
QLQCSPAELQAQLLHSQARLAELE [E12Q]	2.67
QLQCSPAELQAMLLHSQARLAELE [E12M]	3.49
QLQCSPAELQAPLLHSQARLAELE [E12P]	4.04
QLQCSPAELQACLLHSQARLAELE [E12C]	3.05
QLQCSPAELQAHLLHSQARLAELE [E12H]	2.41
QLQCSPAELQARLLHSQARLAELE [E12R]	3.59
QLQCSPAELQAWLLHSQARLAELE [E12W]	1.64
QLQCSPAELQATLLHSQARLAELE [E12T]	3.62
QLQCSPAELQADLLHSQARLAELE [E12D]	3.33
QLQCSPAELQAILLHSQARLAELE [E12I]	2.57
QLQCSPAELQAGLLHSQARLAELE [E12G]	3.65
QLQCSPAELQAVLLHSQARLAELE [E12V]	3.17
QLQCSPAELQAALLHSQARLAELE [E12A]	2.47
QLQCSPAELQASLLHSQARLAELE [E12S]	2.94

From the supplement of paper PMC10567573
